Here are results for 1 substance from patent US8642559.

Data set [1] addresses GST fusion protein with mGluR1α Ile812 to Ser943 attached to the C-terminus of GST (UniProt P23385).
In data set [2] the target is GST fusion protein with mGluR1α Asn889 to Leu1058 fused to the C-terminus of GST (UniProt P23385).
Data set [3] concerns spectrin in brain membranes.
Data set [4] has as its target myc-mGluR1α (mGluR1α tagged with a c-myc epitope inserted in frame after Ala30) (UniProt P23385).

Chain of myc-mGluR1α (mGluR1α tagged with a c-myc epitope inserted in frame after Ala30) (P23385 other isoform, or with tags, fused parts or gaps): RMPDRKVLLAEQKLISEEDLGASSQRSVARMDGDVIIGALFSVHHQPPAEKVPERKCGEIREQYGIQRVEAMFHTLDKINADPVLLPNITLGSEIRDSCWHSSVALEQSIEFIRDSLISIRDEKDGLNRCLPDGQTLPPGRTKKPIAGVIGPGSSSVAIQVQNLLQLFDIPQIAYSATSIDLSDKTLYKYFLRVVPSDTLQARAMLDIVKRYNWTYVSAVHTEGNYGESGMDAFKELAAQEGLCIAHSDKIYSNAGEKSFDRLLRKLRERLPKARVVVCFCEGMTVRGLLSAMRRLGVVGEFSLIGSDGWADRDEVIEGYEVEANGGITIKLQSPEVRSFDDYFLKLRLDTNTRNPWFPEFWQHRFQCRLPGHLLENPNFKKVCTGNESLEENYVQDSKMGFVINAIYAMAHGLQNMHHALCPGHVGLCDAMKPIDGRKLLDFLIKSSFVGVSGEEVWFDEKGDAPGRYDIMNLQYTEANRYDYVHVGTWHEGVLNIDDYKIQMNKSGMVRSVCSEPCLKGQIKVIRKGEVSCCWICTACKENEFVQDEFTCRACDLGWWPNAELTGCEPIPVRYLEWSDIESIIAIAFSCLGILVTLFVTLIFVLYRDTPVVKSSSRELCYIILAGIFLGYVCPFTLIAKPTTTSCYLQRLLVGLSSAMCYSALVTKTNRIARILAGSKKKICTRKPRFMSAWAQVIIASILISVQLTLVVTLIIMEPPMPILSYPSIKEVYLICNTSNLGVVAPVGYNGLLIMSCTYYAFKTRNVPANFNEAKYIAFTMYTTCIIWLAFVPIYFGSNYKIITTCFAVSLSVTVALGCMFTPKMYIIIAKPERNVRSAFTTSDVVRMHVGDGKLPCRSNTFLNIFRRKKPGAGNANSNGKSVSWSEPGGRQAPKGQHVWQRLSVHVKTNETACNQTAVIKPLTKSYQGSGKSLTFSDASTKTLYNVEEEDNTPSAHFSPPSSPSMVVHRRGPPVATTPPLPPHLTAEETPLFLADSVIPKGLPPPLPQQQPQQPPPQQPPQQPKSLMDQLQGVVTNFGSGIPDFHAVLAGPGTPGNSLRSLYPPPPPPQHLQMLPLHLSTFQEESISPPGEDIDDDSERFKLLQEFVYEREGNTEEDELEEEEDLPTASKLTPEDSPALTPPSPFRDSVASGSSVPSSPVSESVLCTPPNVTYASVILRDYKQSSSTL
Chain of GST fusion protein with mGluR1α Ile812 to Ser943 attached to the C-terminus of GST (P23385 812-943): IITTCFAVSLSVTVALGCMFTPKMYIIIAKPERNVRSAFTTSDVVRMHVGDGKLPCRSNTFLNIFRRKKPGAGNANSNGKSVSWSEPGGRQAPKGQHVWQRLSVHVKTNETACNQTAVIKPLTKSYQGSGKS
Chain of GST fusion protein with mGluR1α Asn889 to Leu1058 fused to the C-terminus of GST (P23385 889-1058): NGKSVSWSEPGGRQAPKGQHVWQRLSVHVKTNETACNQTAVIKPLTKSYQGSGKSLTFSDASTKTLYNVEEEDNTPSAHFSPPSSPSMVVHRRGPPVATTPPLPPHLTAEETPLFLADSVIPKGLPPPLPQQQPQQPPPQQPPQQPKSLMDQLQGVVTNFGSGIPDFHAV

Turning to µ-calpain, in data set [1], the “digestion of the purified GST fusion protein with calpain in the presence of 2 mM CaCl2” value is “The GST-mGluR1α fusion protein became about 2 kD smaller after digestion”. Moreover, in data set [2], the “digestion of the GST fusion protein with calpain, Edman sequencing” value is “after digestion with calpain, this fusion protein generated a 10 kD fragment”. Further, the “truncation in brain membranes treated with purified calpain and calcium” value in data set [3] is “truncation of both mGluR1 and spectrin was observed”. For the same substance, in data set [4], the “cleavage of immunoprecipitated myc-mGluR1α by µ-calpain (30 min), silver staining and Western blots” value is on record as “the density of the 145 kD band that represents the whole-length mGluR1α decreased dose-dependently with calpain treatment”.
